Laboratory results taken from patent US20260070940A1 (Hoffmann-La Roche, published 2026).

T1: hu(NA1)BA-avi-His, biotinylated (human, biotin on the avi-tag)
T1 construct: CEACAM5 domains N and A1 followed by two CEACAM1 Ig domains, avi-tag and his-tag; also called CEA antigen; chimera of CEACAM5 domains N and A1 on CEACAM1
T1 chain: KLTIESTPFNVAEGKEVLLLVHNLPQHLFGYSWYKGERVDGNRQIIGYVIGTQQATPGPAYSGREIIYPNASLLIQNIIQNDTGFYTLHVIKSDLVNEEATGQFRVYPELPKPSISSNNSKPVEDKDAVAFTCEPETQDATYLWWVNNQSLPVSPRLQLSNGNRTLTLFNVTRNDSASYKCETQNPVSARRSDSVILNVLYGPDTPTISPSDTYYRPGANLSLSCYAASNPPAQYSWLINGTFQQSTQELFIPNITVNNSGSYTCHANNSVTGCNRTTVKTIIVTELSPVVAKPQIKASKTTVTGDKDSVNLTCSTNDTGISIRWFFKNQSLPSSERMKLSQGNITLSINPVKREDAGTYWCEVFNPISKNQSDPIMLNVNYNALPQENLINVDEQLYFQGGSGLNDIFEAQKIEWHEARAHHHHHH

T2: full-length human CEA with N-terminal SNAP tag on transfected HEK293 cells (human, UniProt P06731 35-685, SNAP tag labelled with terbium)
T2 construct: whole, on cells; also called hu CEA-SNAP; CEACAM5
T2 sequence (looked up): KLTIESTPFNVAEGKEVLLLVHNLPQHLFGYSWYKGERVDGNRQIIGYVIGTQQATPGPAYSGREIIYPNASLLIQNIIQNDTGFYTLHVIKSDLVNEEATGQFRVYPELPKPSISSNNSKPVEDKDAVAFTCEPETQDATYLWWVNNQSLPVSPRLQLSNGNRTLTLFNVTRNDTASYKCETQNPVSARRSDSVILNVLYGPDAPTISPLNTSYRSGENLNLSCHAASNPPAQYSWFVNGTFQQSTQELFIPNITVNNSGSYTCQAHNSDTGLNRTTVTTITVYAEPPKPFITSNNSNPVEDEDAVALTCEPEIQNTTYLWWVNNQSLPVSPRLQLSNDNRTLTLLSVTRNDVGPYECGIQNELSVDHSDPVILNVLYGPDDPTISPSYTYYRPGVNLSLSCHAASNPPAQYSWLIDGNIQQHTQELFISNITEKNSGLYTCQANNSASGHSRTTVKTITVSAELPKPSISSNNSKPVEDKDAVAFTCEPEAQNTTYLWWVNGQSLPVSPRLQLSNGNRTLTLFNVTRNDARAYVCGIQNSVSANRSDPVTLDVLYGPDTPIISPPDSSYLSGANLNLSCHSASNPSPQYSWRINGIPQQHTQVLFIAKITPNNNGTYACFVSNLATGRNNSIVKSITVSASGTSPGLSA

T3: MCSP antigen, amino acids 1553 to 2184 of matured MCSP with C-terminal avi-tag and His-tag, biotinylated (Homo sapiens (Human), UniProt Q6UVK1 1582-2213, limits assumed, biotin on the avi-tag)
T3 construct: also called recombinant MCSP
T3 sequence: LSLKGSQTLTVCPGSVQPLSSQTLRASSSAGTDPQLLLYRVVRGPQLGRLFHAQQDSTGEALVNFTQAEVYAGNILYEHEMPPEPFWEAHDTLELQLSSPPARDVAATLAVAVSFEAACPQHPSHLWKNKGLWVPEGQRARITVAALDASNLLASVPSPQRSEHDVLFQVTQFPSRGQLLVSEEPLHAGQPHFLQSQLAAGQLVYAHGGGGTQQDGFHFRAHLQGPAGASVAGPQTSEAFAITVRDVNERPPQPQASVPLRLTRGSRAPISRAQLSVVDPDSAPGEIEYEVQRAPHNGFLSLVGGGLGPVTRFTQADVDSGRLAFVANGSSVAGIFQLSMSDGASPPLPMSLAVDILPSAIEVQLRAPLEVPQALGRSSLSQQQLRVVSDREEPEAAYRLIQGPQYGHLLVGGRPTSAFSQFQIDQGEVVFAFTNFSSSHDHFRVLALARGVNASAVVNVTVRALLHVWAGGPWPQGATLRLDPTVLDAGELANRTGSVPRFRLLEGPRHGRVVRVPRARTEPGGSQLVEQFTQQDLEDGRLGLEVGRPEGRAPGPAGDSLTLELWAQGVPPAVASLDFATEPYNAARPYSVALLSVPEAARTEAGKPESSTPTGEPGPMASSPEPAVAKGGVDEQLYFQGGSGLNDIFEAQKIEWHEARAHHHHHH


Legend:
[1] = target: T1, hu(NA1)BA-avi-His, biotinylated; assay: SPR, purified aVH
Procedure: CEACAM1-avi-his was again used as a negative control Immobilization of recombinant antigens (ligand): Antigen was diluted with PBST (10 mM phosphate, 150 mM sodium chloride pH 7.4, 0.005% Tween 20) to 10 μg/ml, then injected at 30 μl/minute at varying contact times, to achieve immobilization levels of 200, 400 or 800 response units (RU) in vertical orientation. […] Buffer (PBST) was injected along the sixth channel to provide an “in-line” blank for referencing. Association rate constants (kₒₙ) and dissociation rate constants (koff) were calculated using a simple one-to-one Langmuir binding model in ProteOn Manager v3.1 software by simultaneously fitting the association and dissociation sensorgrams. The equilibrium dissociation constant (KD) was calculated as the ratio koff/kₒₙ.

[2] = target: T1, hu(NA1)BA-avi-His, biotinylated; assay: SPR, bacterial supernatant
Procedure: The off-rate of selected aVH clones was measured using a ProteOn XPR36 instrument (Biorad) at 25° C. with biotinylated hu(NA1)BA-avi-His immobilized on NLC chips by neutravidin capture. CEACAM1-avi-his was used as a negative control. Immobilization of recombinant antigens (ligand): Antigens were diluted with PBST (10 mM phosphate, 150 mM sodium chloride pH 7.4, 0.005% Tween 20) to 10 μg/ml, then injected at 30 μl/minute at varying contact times, to achieve immobilization levels of 400, 800 or 1600 response units (RU) in vertical orientation. Injection of analytes: Injection direction was changed to horizontal orientation and 5 individual aVH-containing supernatants that were diluted 1:3 with PBST were injected simultaneously at 60 μl/min along separate channels 1-5, with association times between 120 and 180s, and dissociation times of 800s. Diluted bacterial supernatant without aVH was injected along the sixth channel to provide an “in-line” blank for referencing. Dissociation rate constants (koff) were calculated using the “koff-rate” calculation in ProteOn Manager v3.1 software.

[3] = target: T2, full-length human CEA with N-terminal …; assay: FRET (TagLite) on hu CEA-SNAP cells
Procedure: Binding of a selected set of purified aVH binders to their epitope on CEA-expressing cells was determined by Fluorescence Resonance Energy Transfer (FRET) analysis. For this analysis, the DNA sequence encoding for the SNAP Tag (plasmid purchased from Cisbio) was amplified by PCR and ligated into an expression vector, containing the full length human CEA sequence. The resulting fusion protein was comprised of full-length CEA with an N-terminal SNAP tag. HEK293 cells were transfected with 10 μg DNA using Lipofectamine 2000 as transfection reagent. After an incubation time of 20 h, cells were washed with PBS and incubated for 1 h at 37° C. in LabMed buffer (Cisbio) containing 100 nM SNAP-Lumi4Tb (Cibsio), leading to specific labeling of the SNAP Tag. Subsequently, cells were washed 4 times with LabMed buffer to remove unbound dye. […] Cells were then stored frozen at −80° C. for up to 6 months. Binding was measured by adding CEA-specific aVH binders at a concentration ranging from 0.005 up to 100 nM to labeled cells (100 cells per well) followed by addition of d2-labeled anti-his tag antibody (Cisbio, final concentration was 200 nM per well) as acceptor molecule for the FRET. […] The ratio of acceptor to donor emission was calculated and the ratio of the background control (cells only incubated with anti-his tag antibody) subtracted. Curves were analysed in GraphPad Prism5 (FIG. 9) and KDs calculated (Table 26).

[4] = target: T3, MCSP antigen, amino acids 1553 to 2184 …; assay: SPR, MCSP immobilised
[5] = target: T4, human FAP avi his, biotinylated (human, UniProt Q12884 27-759, biotin on the avi-tag); assay: SPR, bacterial supernatant;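 also: SPR at 25 °C with biotinylated human or murine FAP captured via neutravidin, aVH-containing bacterial supernatants diluted 1:3 as analyte, 600 s dissociation, blank supernatant without aVH as reference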
T4 construct: also called huFAP
Procedure: (§1) Clones that were identified in the “mix-and-read assay” performed with the Mirrorball instrument were further analyzed by Surface Plasmon Resonance (SPR). The off-rate of selected aVH clones was measured using a ProteOn XPR36 instrument (Biorad) at 25° C. with biotinylated human and murine FAP antigen immobilized on NLC chips by neutravidin capture. Immobilization of recombinant antigens (ligand): Antigens were diluted with PBST (10 mM phosphate, 150 mM sodium chloride pH 7.4, 0.005% Tween 20) to 10 μg/ml, then injected at 30 μl/minute at varying contact times, to achieve immobilization levels of 400, 800 or 1600 response units (RU) in vertical orientation. Injection of analytes: Injection direction was changed to horizontal orientation and 5 individual aVH-containing supernatants that were diluted 1:3 with PBST were injected simultaneously at 60 μl/min along separate channels 1-5, with association times between 120 and 180s, and dissociation times of 600s. Diluted bacterial supernatant without aVH was injected along the sixth channel to provide an “in-line” blank for referencing. Dissociation rate constants (koff) were calculated using the “koff-rate” calculation in ProteOn Manager v3.1 software.

[6] = target: T5, murine FAP avi his, biotinylated (murine, UniProt P97321 27-761, biotin on the avi-tag); assay: SPR, bacterial supernatant;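 also: SPR at 25 °C with biotinylated human or murine FAP captured via neutravidin, aVH-containing bacterial supernatants diluted 1:3 as analyte, 600 s dissociation, blank supernatant without aVH as reference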
T5 construct: also called muFAP; mu FAP
Procedure: as §1

| Kd [1] | koff [2] | Kd [3] | koff [6] | koff [5] | Binder | further results |
| --- | --- | --- | --- | --- | --- | --- |
| 37.9 nM | 0.0599 s⁻¹ | 16.8 nM | – | – | anti-CEA aVH P118.089 (VHH) VHH: EVQLVESGGGLVQPGGSLRLSCAASGFNIKDTCIGWVRRAPGKEEELVASICQYSGYTRYADSVKGRFTISADTSKNTAYLQMNSLRAEDTAVYYCAITSHHGDYNYWGQGTTVTVSS | – |
| – | – | – | – | – | anti-MCSP aVH clone 44 (VHH) VHH: EVQLVESGGGLVQPGGSLRLSCAASGFNIKDGYIDWVRRAPGKGTELVASIECTNGRATRYADSVKGRFTISCDTSKNTAYLQMNSLRAEDTAVYYCAYAGIGYYFYYWGQGTTVTVSS | Kd [4]: 109 nM; koff [4]: 0.0163 s⁻¹; kon [4]: 150000 M⁻¹ s⁻¹ |
| 89.1 nM | 0.0278 s⁻¹ | 190 nM | – | – | anti-CEA aVH P123.065 (VHH) VHH: EVQLVESGGGLVQPGGSLRLSCAASGFNIKDSSTYIGWVRRAPGKEEELVASISCSRGNTRYADSVKGRFTISCDTSKNTAYLQMNSLRAEDTAVYYCAHPRYTWYDYWGQGTTVTVSS | – |
| 7.26 nM | 0.00034 s⁻¹ | 10.4 nM | – | – | anti-CEA aVH P112.083 (VHH) VHH: EVQLVESGGGLVQPGGSLRLSCAASGFNIKDTCIGWVRRAPGKEEELVADICPYKGSTRYADSVKGRFTISADTSKNTAYLQMNSLRAEDTAVYYCAIVSARDGYYNYWGQGTTVTVSS | – |
| 16.2 nM | 0.0016 s⁻¹ | 14.6 nM | – | – | anti-CEA aVH P112.068 (VHH) VHH: EVQLVESGGGLVQPGGSLRLSCAASGFNIKDTCIGWVRRAPGKEEELVAKICKYSGHTRYADSVKGRFTISADTSKNTAYLQMNSLRAEDTAVYYCAAVSVRDGHYNYWGQGTTVTVSS | – |
| 96.2 nM | 0.0305 s⁻¹ | 28.6 nM | – | – | anti-CEA aVH P118.008 (VHH) VHH: EVQLVESGGGLVQPGGSLRLSCAASGFNIKDTCIGWVRRAPGKEEELVAYICNYTGYTRYADSVKGRFTISADTSKNTAYLQMNSLRAEDTAVYYCAITSYHGQGYNYWGQGTTVTVSS | – |
| 15.2 nM | 0.0395 s⁻¹ | 11.1 nM | – | – | anti-CEA aVH P124.037 (VHH) VHH: EVQLVESGGGLVQPGGSLRLSCAASGFNIKDTCIGWVRRAPGKEEELVAQICQYHGSTRYADSVKGRFTISADTSKNTAYLQMNSLRAEDTAVYYCAIVGQNYPVYNYWGQGTTVTVSS | – |
| 135 nM | 0.0317 s⁻¹ | 28.3 nM | – | – | anti-CEA aVH P127.141 (VHH) VHH: EVQLVESGGGLVQPGGSLRLSCAASGFNIKDTCIGWVRRAPGKEEELVAGICEYTGSTRYADSVKGRFTISADTSKNTAYLQMNSLRAEDTAVYYCAIVSQSRSVYNYWGQGTTVTVSS | – |
| 102 nM | 0.033 s⁻¹ | 47.3 nM | – | – | anti-CEA aVH P118.093 (VHH) VHH: EVQLVESGGGLVQPGGSLRLSCAASGFNIKDTCIGWVRRAPGKEEELVADICPSYGGTRYADSVKGRFTISADTSKNTAYLQMNSLRAEDTAVYYCAIVSKIDQYYNYWGQGTTVTVSS | – |
| 296 nM | 0.00704 s⁻¹ | 74.3 nM | – | – | anti-CEA aVH P124.067 (VHH) VHH: EVQLVESGGGLVQPGGSLRLSCAASGFNIKDTCIGWVRRAPGKEEELVAAICEYKGYTRYADSVKGRFTISADTSKNTAYLQMNSLRAEDTAVYYCAIASPVDQYYNYWGQGTTVTVSS | – |
| – | – | – | – | – | anti-MCSP aVH clone 57.1 (VHH) VHH: EVQLVESGGGLVQPGGSLRLSCAASGFNIKQNCIEWVRRAPGKGTELVANICHDIGSTRYADSVKGRFTISADTSKNTAYLQMNSLRAEDTAVYYCAAWEQKGFNYWGQGTTVTVSS | Kd [4]: 48 nM; koff [4]: 0.0142 s⁻¹; kon [4]: 295000 M⁻¹ s⁻¹ |
| – | – | – | 0.0176 s⁻¹ | – | anti-FAP aVH P034.001 (VHH) VHH: EVQLVESGGGLVQPGGSLRLSCAASGFNIKDTCIGWVRRAPGKEEELVANICGSIGATRYADSVKGRFTISADTSKNTAYLQMNSLRAEDTAVYYCAKSGGHKGYRYWGQGTTVTVSS | binding result [5]: no binding |
| – | – | – | 0.0106 s⁻¹ | 0.00385 s⁻¹ | anti-FAP aVH P034.007 (VHH) VHH: EVQLVESGGGLVQPGGSLRLSCAASGFNIKDTCIGWVRRAPGKEEELVANICGGDGHTRYADSVKGRFTISADTSKNTAYLQMNSLRAEDTAVYYCATSYTVYRYYYWGQGTTVTVSS | – |
| – | – | – | – | 0.00316 s⁻¹ | anti-FAP aVH P058.068 (VHH) VHH: EVQLVESGGGLVQPGGSLRLSCAASGFNIKDTCIGWVRRAPGKEEELVANICQTHGYTRYADSVKGRFTISADTSKNTAYLQMNSLRAEDTAVYYCAYKGGGRYYDYWGQGTTVTVSS | binding result [6]: no binding |
| – | – | – | – | – | anti-MCSP aVH clone 2 (VHH) VHH: EVQLVESGGGLVQPGGSLRLSCAASSFNIKDTYIGWVRRAPGKGTELVASIDCIYGYTRYADSVKGRFTISCDTSKNTAYLQMNSLRAEDTAVYYCAAQGYRLHYWGQGTTVTVSS | Kd [4]: 8 nM; koff [4]: 0.00339 s⁻¹; kon [4]: 458000 M⁻¹ s⁻¹ |
| – | – | – | 0.0151 s⁻¹ | 0.0141 s⁻¹ | anti-FAP aVH P054.035 (VHH) VHH: EVQLVESGGGLVQPGGSLRLSCAASGFNIKDTCIGWVRRAPGKEEELVANICGSYGHTRYADSVKGRFTISADTSKNTAYLQMNSLRAEDTAVYYCASSYTVYRSYAYWGQGTTVTVSS | – |
| – | – | – | 0.0294 s⁻¹ | 0.0125 s⁻¹ | anti-FAP aVH P053.020 (VHH) VHH: EVQLVESGGGLVQPGGSLRLSCAASGFNIKDTCIGWVRRAPGKEEELVARICGQIGSTRYADSVKGRFTISADTSKNTAYLQMNSLRAEDTAVYYCATSYTVYRSYDYWGQGTTVTVSS | – |
| – | – | – | 0.0171 s⁻¹ | 0.00547 s⁻¹ | anti-FAP aVH P048.019 (VHH) VHH: EVQLVESGGGLVQPGGSLRLSCAASGFNIKDTCIGWVRRAPGKEEELVANICPKHGATRYADSVKGRFTISADTSKNTAYLQMNSLRAEDTAVYYCAYSGNVYNRYKYWGQGTTVTVSS | – |
| – | – | – | 0.0312 s⁻¹ | 0.0161 s⁻¹ | anti-FAP aVH P054.064 (VHH) VHH: EVQLVESGGGLVQPGGSLRLSCAASGFNIKDTCIGWVRRAPGKEEELVANICGSNGYTRYADSVKGRFTISADTSKNTAYLQMNSLRAEDTAVYYCASSYTVYRGYDYWGQGTTVTVSS | – |
